Reference: paper PMC11820797, “Rapid Detection of Alpha-Fetoprotein (AFP) with Lateral Flow Aptasensor”

Molecular target: T1, alpha-fetoprotein (AFP) (UniProt P02771 19-609)
T1 sequence: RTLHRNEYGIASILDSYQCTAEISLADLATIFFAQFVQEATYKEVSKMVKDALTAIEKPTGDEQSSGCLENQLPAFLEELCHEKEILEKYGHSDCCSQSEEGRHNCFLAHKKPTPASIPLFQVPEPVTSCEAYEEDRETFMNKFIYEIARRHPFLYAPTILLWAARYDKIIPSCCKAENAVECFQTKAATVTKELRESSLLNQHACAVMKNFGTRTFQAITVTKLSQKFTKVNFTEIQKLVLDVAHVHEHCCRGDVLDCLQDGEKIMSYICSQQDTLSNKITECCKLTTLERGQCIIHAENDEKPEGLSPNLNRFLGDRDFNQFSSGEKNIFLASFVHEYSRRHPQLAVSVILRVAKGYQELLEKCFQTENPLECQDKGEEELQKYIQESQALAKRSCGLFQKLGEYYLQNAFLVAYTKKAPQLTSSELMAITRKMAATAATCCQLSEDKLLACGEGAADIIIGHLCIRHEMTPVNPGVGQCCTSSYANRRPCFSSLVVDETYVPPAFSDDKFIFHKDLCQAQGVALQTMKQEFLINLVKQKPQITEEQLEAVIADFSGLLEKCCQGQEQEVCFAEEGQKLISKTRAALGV
Assay: lateral flow aptamer sandwich; AP-273 as both AuNP probe and capture probe; 100 ng/mL AFP detected; LOD 10 ng/mL; Lateral flow strip, 50 uL running buffer (composition not in the material); pads pretreated with 0.05 M Tris-HCl, 2.5% Tween-20, 0.25% Triton X-100; assay pH and temperature not given
Conditions: label: AuNP (Det-Apt); biotin-streptavidin (Cap-Apt)

B1: AP-273 (Det-Apt / Cap-Apt) (ssDNA)
DNA: GTGACGCTCCTAACGCTGACTCAGGTGCAGTTCTCGACTCGGTCTTGATGTGGGTCCTGTCCGTCCGAACCAATC
modifications: thiol (Det-Apt) or biotin (Cap-Apt), printed at 5' end
  binding result: binds
